The target of assay [1] is T1, human PD1 (human, UniProt Q15116 25-288).
T1 construct: whole, on cells; also called hPD1; CHO-hPD1
Put plainly: FACS on CHO/human PD-1 cells.

In another assay the target is T2, mouse PD-1 (mouse, UniProt Q02242 25-288).
T2 construct: whole, on cells; also called CHO/mouse PD-1
T2 sequence (looked up): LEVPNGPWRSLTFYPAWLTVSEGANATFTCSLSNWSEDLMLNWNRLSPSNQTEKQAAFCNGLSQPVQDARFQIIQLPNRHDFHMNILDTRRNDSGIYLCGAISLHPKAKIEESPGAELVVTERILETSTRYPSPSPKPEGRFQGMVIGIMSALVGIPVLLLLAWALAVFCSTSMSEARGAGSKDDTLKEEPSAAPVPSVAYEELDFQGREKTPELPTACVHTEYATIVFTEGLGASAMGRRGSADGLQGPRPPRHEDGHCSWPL
The assay is described as follows: FACS on CHO/mouse PD-1 cells.

The next assay addresses T3, cyno PD-1 (cyno, UniProt B0LAJ3 25-288).
T3 construct: also called CHO/cyno PD-1; monkey PD-1
Put plainly: FACS on CHO/cyno PD-1 cells.

In assay [2] the target is T1, human PD1. Put plainly: cell-based or functional assay.
Assay [3] has as its target T1, human PD1. The assay is described as follows: FACS binding on CHO/human PD-1 cells (Example 12). Background: In flow cytometry, cells or beads pass a laser one at a time.
The target in assay [4] is T1, human PD1. Put plainly: FACS: blocking of human PD-L1-mFC (1 µg/mL) binding to CHO/human PD-1 cells.
The next assay has as its target T4, human IL10R1 (human, UniProt Q13651 22-578).
T4 construct: whole, on cells; also called CHO/human IL10R1
T4 sequence (looked up): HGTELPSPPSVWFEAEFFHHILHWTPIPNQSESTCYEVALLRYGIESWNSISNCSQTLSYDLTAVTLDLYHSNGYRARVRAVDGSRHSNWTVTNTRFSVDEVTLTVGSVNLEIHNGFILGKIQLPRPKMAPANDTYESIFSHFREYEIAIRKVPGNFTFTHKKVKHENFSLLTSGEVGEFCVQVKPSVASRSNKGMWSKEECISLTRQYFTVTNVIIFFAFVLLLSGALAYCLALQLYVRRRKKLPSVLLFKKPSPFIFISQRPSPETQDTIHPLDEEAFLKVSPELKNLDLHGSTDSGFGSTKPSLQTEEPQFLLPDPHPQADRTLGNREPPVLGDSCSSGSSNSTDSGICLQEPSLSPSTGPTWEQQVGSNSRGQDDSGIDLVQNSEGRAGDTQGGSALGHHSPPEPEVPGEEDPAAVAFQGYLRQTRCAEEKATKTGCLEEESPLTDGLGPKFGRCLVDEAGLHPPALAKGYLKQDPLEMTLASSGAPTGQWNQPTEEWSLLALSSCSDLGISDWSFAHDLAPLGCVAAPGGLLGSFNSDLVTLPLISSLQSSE
The assay is described as follows: FACS on CHO/human IL10R1 cells.

The next assay has as its target T5, mouse IL10R1 (mouse, UniProt Q61727 17-575).
T5 construct: whole, on cells; also called CHO/mouse IL10R1
T5 sequence (looked up): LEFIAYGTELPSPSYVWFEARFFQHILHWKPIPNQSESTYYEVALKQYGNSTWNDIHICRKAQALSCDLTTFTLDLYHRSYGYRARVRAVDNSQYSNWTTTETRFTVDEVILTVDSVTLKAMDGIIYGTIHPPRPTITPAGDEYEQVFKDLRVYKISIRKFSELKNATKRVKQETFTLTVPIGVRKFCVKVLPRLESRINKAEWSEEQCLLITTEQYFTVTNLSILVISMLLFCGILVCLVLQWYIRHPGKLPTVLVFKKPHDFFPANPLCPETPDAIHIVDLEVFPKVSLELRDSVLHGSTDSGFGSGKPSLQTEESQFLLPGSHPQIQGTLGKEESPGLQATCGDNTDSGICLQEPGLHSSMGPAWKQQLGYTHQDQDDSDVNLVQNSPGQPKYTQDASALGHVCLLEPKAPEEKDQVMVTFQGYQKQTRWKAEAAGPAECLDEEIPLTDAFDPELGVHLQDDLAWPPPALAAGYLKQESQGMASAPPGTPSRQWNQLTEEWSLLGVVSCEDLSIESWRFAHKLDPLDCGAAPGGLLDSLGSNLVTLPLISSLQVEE
The assay is described as follows: FACS on CHO/mouse IL10R1 cells.

The next assay addresses T6, cyno IL10R1 (cyno, UniProt A0A2K5WJ66 22-576).
T6 construct: whole, on cells; also called CHO/cyno IL10R1; monkey IL10R1
T6 sequence: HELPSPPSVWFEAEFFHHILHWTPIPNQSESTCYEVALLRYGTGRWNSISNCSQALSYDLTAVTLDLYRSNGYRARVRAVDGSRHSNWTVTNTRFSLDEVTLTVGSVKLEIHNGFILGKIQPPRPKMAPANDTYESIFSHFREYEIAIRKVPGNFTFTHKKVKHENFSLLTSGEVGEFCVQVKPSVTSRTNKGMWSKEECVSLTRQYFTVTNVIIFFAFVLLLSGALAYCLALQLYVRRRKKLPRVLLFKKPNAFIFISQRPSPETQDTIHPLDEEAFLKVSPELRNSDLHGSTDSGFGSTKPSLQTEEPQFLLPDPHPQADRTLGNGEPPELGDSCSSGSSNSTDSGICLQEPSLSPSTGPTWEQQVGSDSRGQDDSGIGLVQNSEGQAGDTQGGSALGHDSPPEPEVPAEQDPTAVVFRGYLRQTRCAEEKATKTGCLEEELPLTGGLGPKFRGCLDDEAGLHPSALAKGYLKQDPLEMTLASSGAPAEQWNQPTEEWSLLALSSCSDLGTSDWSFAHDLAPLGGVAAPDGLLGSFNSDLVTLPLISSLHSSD
The assay is described as follows: FACS on CHO/cyno IL10R1 cells.

T1 sequence (Q15116 25-288): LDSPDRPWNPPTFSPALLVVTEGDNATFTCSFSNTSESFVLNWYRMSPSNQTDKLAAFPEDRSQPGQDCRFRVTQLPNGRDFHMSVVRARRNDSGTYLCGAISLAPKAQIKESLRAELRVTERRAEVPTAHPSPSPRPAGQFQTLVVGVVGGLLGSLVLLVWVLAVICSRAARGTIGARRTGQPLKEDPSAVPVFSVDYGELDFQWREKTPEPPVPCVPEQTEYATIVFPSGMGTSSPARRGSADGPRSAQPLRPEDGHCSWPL
T3 sequence (B0LAJ3 entry or part of it limits assumed, form in doubt): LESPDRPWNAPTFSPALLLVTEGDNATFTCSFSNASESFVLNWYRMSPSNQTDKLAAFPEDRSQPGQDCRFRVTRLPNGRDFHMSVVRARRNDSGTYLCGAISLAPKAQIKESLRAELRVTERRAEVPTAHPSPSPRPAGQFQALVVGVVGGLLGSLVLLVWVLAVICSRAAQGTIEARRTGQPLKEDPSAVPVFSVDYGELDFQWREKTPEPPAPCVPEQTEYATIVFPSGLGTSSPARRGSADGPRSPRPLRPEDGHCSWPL

B1: anti-PD1 antibody R1152 (antibody, human IgG1, kappa, L234A L235A, V domains shown)
VH: QVQLVQSGAEVKKPGASVKVSCKASGYTFTTYYMYWVRQAPGQGLEWMGGINPSNGGTNYAQKFQGRATMTVDTSTSTAYMELSSLRSEDTAVYYCTRRDSNYDGGFDYWGQGTTVTVSS
VL: DIQMTQSPSSLSASVGDRVTITCRASKSVSTSGYSYMHWYQQKPGKAPKLLIYLAYHLESGVPSRFSGSGSGTDFTLTISSLQPEDFATYYCQHSWELPITFGQGTKLEIKR
notes: also called PD1 monoclonal antibody R1152; PD-1 parent antibody
By EC50 is commonly meant the midpoint of the concentration-response curve. Higher therefore signals weaker potency. As usually defined, the IC50 is the concentration that inhibits the measured activity by half. High values mean lower potency, low ones higher potency. Consider B1, for which the half-maximal effective concentration (EC50) with human PD1 [1] came out at 5.47 nM; in the assay with cyno PD-1, 3.47 nM; with human PD1 [3] it was 7.75 nM. The binding result with mouse PD-1 is on record as “no binding”. In the assay with human PD1 [2], the “EC50 of luciferase reporter gene activity (CHO-OKT3-hPD-L1 cells + Jurkat-NFAT-luc-hPD-1 cells)” value turned out to be 6.84 nM. Moreover, in the assay with human PD1 [4], the IC50 came out at 8.34 nM.

B2: R0862, hIgG1 antibody containing an L234A/L235A mutation (antibody, V domains shown)
VH: QVQLVESGGGVVQPGRSLRLSCAASGFTFSSYGMHWVRQAPGKGLEWVAAIWYDGSNKYYTDSVKGRFTISRDNSKNTLYLQMNSLRAEDTAVYYCARDLRGVMYFDLWGRGTLVTVSS
VL: EIVLTQSPATLSLSPGERATLSCRASQSVSRYLAWYQQKPGQAPRLLIYDASNRATGIPARFSGSGSGTDFTLTISSLEPEDFAVYYCQLRNNWPLTFGGGTKVEIKR
notes: Isotype control; also called ISO-hIgG1.8; copies: 2 + 2
On to B2, for which the binding result with human IL10R1, with human PD1 [1], with mouse PD-1, with mouse IL10R1 and with cyno IL10R1 was “no binding” throughout.

The values above are taken from patent EP4786499A1 (Guangdong Fapon Biopharma Inc., dated 2026).
